# Results published in patent publication US20150044137A1.
# B1: VRC13c (antibody, V domains shown)
# VH: QLQLDQPGAAMKSLGSSLTITCRVSGDDLGSFHFGTYFMIWVRQGPGQGLEYMGGILPSTKTPTYAHKFRGRVSISAPGVPPVLSLALTNLTYDDTATYFCARERGRHFEPKNRDHLEGKFLDLWGRGTFVRVSP
# VL: QSVLTQPASVSGSPGQSINISCAGRSDRVSWYQQRPNGVPKLLLFDVYRRPSGVSDRFSGSHSDDTAFLTISGLQTDDEADYYCTSHPYAFGPGTKVNVL
# B2: VRC13g (antibody, V domains shown)
# VH: QIELRQSGAAMKSPGSSVKLSCTVLGENFGTYFISWIRQAPGQGLEWVGGIVPHSQLQSSAQKFHGRIKISGGGTPPVVSLELTNVTFDDTGTYFCARERGRHVEPKTGDRLAGRYFDIWGRGTGLRVSP
# VL: QSVLTQPAFVSGSPGQSITISCTVGTTDVSWYQQRPNSAPRLIIFDVKKRPSGVSDRFSGSSSDNAAFLTIAGLRPEDEAEYYCTSWPYRFGRGTKVDVG
# B3: VRC13d (antibody, V domains shown)
# VH: QVQLVQSGAVVKSPGSSAKLSCRLLGDEFGTYFISWIRQAPGRGLEWVGGIVPHSQLQSSAQKFHGRFFITGGVTPPIIFLQLTNVTFEDTGTYFCARERGRHRDPKTGKSLRGRYFDFWGRGTGVTVSP
# VL: QSVLTQPAFVSASPGQSITLSCNLGTDYVSWYQQRPSSAPRLIIFDVKNRPSGVSDRFSGYNSDTAAFLTISGLQPEDEAEYYCTSWPYNFGPGTKVDVT
# B4: VRC13e (antibody, V domains shown)
# V domain 1: QPYIVQSGPAVKGAGSSVTVTCKVDGDDDGIFSFGTYFMVWVRQAPGQGLQYMGGLVPSYAPTYAHKFEGRITISAAGTPPVVSLTLLNLTNDDAATYFCARERGRHYDSKTRENRRGRYFDMWGRGTRITVSP
# V domain 2: QSVLTQPASVSGSPGQTISISCSGTFGSDSVSWYQQYPNSAPTLIIFDVHRRPSGISTRFSGSTSGDTASLTISTLHREDEAYYYCTSHPYDFGGGTYVIVL
# B5: VRC13f (antibody, V domains shown)
# V domain 1: QPYIVQSGPAVKGAGSSVTVTCRVDGDDDGIFNFGTYFMVWVRQAPGQGLQYMGGLVPSYAPTYAHKFEGRITISAAGTPPVVSLTLINLTNADAATYFCARERGRHYDSKTRENRRGRYFDMWGRGTRITVSP
# V domain 2: QSVLTQPASVSGSPGQTISISCSGTFGSDSVSWYQQFPNSAPTLIIFDVHRRPSGISTRFSGSTSGDTASLTISTLHREDEAFYYCTSHPYDFGGGTYVIVL
# B6: VRC13b (antibody, V domains shown)
# VH: QVQLVQSGTALKSPGSSAKLSCTVLGDEFGTYFISWIRQAPGQGLEWVGGIVPHSQLQSSAQKFHGRIIISAGAGVTPPVVSLQLTNLTFEDTGTYFCARERGRHRDPKTGDALRGRYFDFWGRGTGVSVSA
# VL: QSVLTQPAFVSGSPGQSITLSCTLGTEDVSWYQQRPNSAPRLIIFDVKKRPSDVSDRFSGHNSDTAAFLTISELRPEDEAEYFCTSWPYRFGRGTKVDVA
# Key:
# [1] = target: RSC3 probe; assay: ELISA-type plate assay (OD450), mAb titrated on RSC3 [panel VRC13c]
# [2] = target: RSC3 probe; assay: ELISA-type plate assay (OD450), mAb titrated on RSC3 [panel VRC13g]
# [3] = target: RSC3 probe; assay: ELISA-type plate assay (OD450), mAb titrated on RSC3 [panel VRC13d]
# [4] = target: RSC3 probe; assay: ELISA-type plate assay (OD450), mAb titrated on RSC3 [panel VRC13e]
# [5] = target: RSC3 probe; assay: ELISA-type plate assay (OD450), mAb titrated on RSC3 [panel VRC13f]
# [6] = target: RSC3 probe; assay: ELISA-type plate assay (OD450), mAb titrated on RSC3 [panel VRC13b]
binder,measurement,setting,value
B1,EC50 (read off the curve),[1],0.02 µg/mL
B2,EC50 (read off the curve),[2],0.02 µg/mL
B3,EC50 (read off the curve),[3],0.02 µg/mL
B4,EC50 (read off the curve),[4],0.02 µg/mL
B5,EC50 (read off the curve),[5],0.02 µg/mL
B6,EC50 (read off the curve),[6],0.02 µg/mL
